# Assay results from US20060257938A1, “Method of screening for drugs that block ligand binding to a lipid binding protein” (priority 2005, published 2006).
# Where a chain is given by its changes, count along the chain named.
# B1: 72I 73W 74N (protein, listed as Rattus norvegicus)
# chain: AFDGTWKVDRNENYEKFMEKMGINVVKRKLGAHDNLKLTITQEGNKFTVKESSNFRNIDVVFELGVDFAYSIWNGTELTGTWTMEGNKLVGKFKRVDNGKELIAVREISGNELIQTYTYEGVEAKRIFKKE
# modifications: PEPTIDE (1)...(131) wild-type rat intestinal fatty acid binding protein
# B2: 73F 72A (protein, listed as Rattus norvegicus)
# chain: B1 chain with I72A, W73F, N74D
# modifications: PEPTIDE (1)...(131) wild-type rat intestinal fatty acid binding protein
# B3: 18I 31L 55L 72A (protein, listed as Rattus norvegicus)
# chain: B1 chain with M18I, G31L, F55L, I72A, W73A, N74D
# modifications: PEPTIDE (1)...(131) wild-type rat intestinal fatty acid binding protein
# B4: 72S 73W 74G (protein, listed as Rattus norvegicus)
# chain: B1 chain with I72S, N74G
# modifications: PEPTIDE (1)...(131) wild-type rat intestinal fatty acid binding protein
# B5: 73T 72A 74F (protein, listed as Rattus norvegicus)
# chain: B1 chain with I72A, W73T, N74F
# modifications: PEPTIDE (1)...(131) wild-type rat intestinal fatty acid binding protein
# B6: 74T 72A 73F (protein, listed as Rattus norvegicus)
# chain: B1 chain with I72A, W73F, N74T
# modifications: PEPTIDE (1)...(131) wild-type rat intestinal fatty acid binding protein
# B7: 55V 73F 72A (protein, listed as Rattus norvegicus)
# chain: B1 chain with F55V, I72A, W73F, N74D
# modifications: PEPTIDE (1)...(131) wild-type rat intestinal fatty acid binding protein
# B8: 74E 72A 73F (protein, listed as Rattus norvegicus)
# chain: B1 chain with I72A, W73F, N74E
# modifications: PEPTIDE (1)...(131) wild-type rat intestinal fatty acid binding protein
# B9: 72S 73Q 74A (protein, listed as Rattus norvegicus)
# chain: B1 chain with I72S, W73Q, N74A
# modifications: PEPTIDE (1)...(131) wild-type rat intestinal fatty acid binding protein
# B10: 73P 72A 74F (protein, listed as Rattus norvegicus)
# chain: B1 chain with I72A, W73P, N74F
# modifications: PEPTIDE (1)...(131) wild-type rat intestinal fatty acid binding protein
# B11: 18V 31F 73M 72A (protein, listed as Rattus norvegicus)
# chain: B1 chain with M18V, G31F, I72A, W73M, N74D
# modifications: PEPTIDE (1)...(131) wild-type rat intestinal fatty acid binding protein
# B12: 74S 72A 73F (protein, listed as Rattus norvegicus)
# chain: B1 chain with I72A, W73F, N74S
# modifications: PEPTIDE (1)...(131) wild-type rat intestinal fatty acid binding protein
# B13: 38I 74F 72A (protein, listed as Rattus norvegicus)
# chain: B1 chain with L38I, I72A, W73A, N74F
# modifications: PEPTIDE (1)...(131) wild-type rat intestinal fatty acid binding protein
# B14: 72G 73F 74N (protein, listed as Rattus norvegicus)
# chain: B1 chain with I72G, W73F
# modifications: PEPTIDE (1)...(131) wild-type rat intestinal fatty acid binding protein
# B15: 18V 31F 55L 72A (protein, listed as Rattus norvegicus)
# chain: B1 chain with M18V, G31F, F55L, I72A, W73A, N74D
# modifications: PEPTIDE (1)...(131) wild-type rat intestinal fatty acid binding protein
# B16: 18I 31V 55V 73V 72A (protein, listed as Rattus norvegicus)
# chain: B1 chain with M18I, G31V, F55V, I72A, W73V, N74D
# modifications: PEPTIDE (1)...(131) wild-type rat intestinal fatty acid binding protein
# B17: 74Q 72A 73F (protein, listed as Rattus norvegicus)
# chain: B1 chain with I72A, W73F, N74Q
# modifications: PEPTIDE (1)...(131) wild-type rat intestinal fatty acid binding protein
# B18: 38Y 117A 72A (protein, listed as Rattus norvegicus)
# chain: B1 chain with L38Y, I72A, W73A, N74D, Y117A
# modifications: PEPTIDE (1)...(131) wild-type rat intestinal fatty acid binding protein
# B19: 72E 73V 74A (protein, listed as Rattus norvegicus)
# chain: B1 chain with I72E, W73V, N74A
# modifications: PEPTIDE (1)...(131) wild-type rat intestinal fatty acid binding protein
# B20: 72A 73P 74E (protein, listed as Rattus norvegicus)
# chain: B1 chain with I72A, W73P, N74E
# modifications: PEPTIDE (1)...(131) wild-type rat intestinal fatty acid binding protein
# Test: Probe fluorescence ratio response to linoleic acid relative to ADIFAB2
# Type: binding
# Settings: response relative to ADIFAB2
# Procedure, shortened: (§1)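 Each fatty acid's response was expressed relative to ADIFAB2, the rI-FABP-L72A probe, as ΔR/ΔRreference. ΔR is the change in the background-corrected two-wavelength intensity ratio R=Fλ1/Fλ2 from its analyte-free baseline R0. Emission was read near about 420-480 nm for unbound and about 495-580 nm for FFA-bound probe.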
row,Molecule,DR/DR LA
1,B1,1.194
2,B2,1.171
3,B3,1.442
4,B4,1.375
5,B5,1.389
6,B6,1.185
7,B7,1.223
8,B8,1.093
9,B9,2.140
10,B10,0.838
11,B11,1.296
12,B12,1.035
13,B13,1.162
14,B14,0.454
15,B15,0.996
16,B16,0.853
17,B17,0.711
18,B18,1.869
19,B19,0.735
20,B20,1.741

# Test: Probe fluorescence ratio response to palmitoleic acid relative to ADIFAB2
# Type: binding
# Settings: response relative to ADIFAB2
# Procedure, shortened: as §1
row,Molecule,DR/DR POA
1,B1,3.236
2,B2,2.381
3,B3,2.011
4,B4,2.422
5,B5,2.450
6,B6,2.309
7,B7,2.264
8,B8,2.395
9,B9,2.293
10,B10,1.776
11,B11,1.538
12,B12,2.413
13,B13,2.112
14,B14,1.499
15,B15,1.353
16,B16,1.236
17,B17,1.479
18,B18,0.839
19,B19,1.093
20,B20,2.087

# Test: Probe fluorescence ratio response to oleic acid relative to ADIFAB2
# Type: binding
# Settings: response relative to ADIFAB2
# Procedure, shortened: as §1
row,Molecule,DR/DR OA
1,B1,0.779
2,B2,0.630
3,B3,0.759
4,B4,0.970
5,B5,1.161
6,B6,0.634
7,B7,0.661
8,B8,0.575
9,B9,1.875
10,B10,0.868
11,B11,0.794
12,B12,0.630
13,B13,0.764
14,B14,−0.032
15,B15,0.649
16,B16,0.448
17,B17,0.390
18,B18,1.976
19,B19,0.524
20,B20,1.802

# Test: Probe fluorescence ratio response to palmitic acid relative to ADIFAB2
# Type: binding
# Settings: response relative to ADIFAB2
# Procedure, shortened: as §1
row,Molecule,DR/DR PA
1,B1,2.091
2,B2,1.118
3,B3,1.523
4,B4,1.653
5,B5,1.632
6,B6,1.150
7,B7,1.082
8,B8,1.026
9,B9,1.896
10,B10,1.278
11,B11,1.395
12,B12,1.158
13,B13,1.343
14,B14,0.456
15,B15,1.035
16,B16,0.974
17,B17,0.649
18,B18,0.933
19,B19,0.736
20,B20,1.732

# Test: Probe fluorescence ratio response to arachidonic acid relative to ADIFAB2
# Type: binding
# Settings: arachidonic acid; response relative to ADIFAB2
# Procedure, shortened: as §1
row,Molecule,DR/DR AA
1,B1,0.791
2,B2,1.051
3,B3,1.285
4,B4,1.012
5,B5,0.939
6,B6,0.852
7,B7,0.864
8,B8,0.703
9,B9,2.290
10,B10,1.078
11,B11,1.014
12,B12,0.893
13,B13,0.787
14,B14,0.617
15,B15,0.921
16,B16,0.632
17,B17,0.465
18,B18,2.216
19,B19,0.478
20,B20,1.975

# Test: Probe fluorescence ratio response to linolenic acid relative to ADIFAB2
# Type: binding
# Settings: response relative to ADIFAB2
# Procedure, shortened: as §1
row,Molecule,DR/DR LNA
1,B1,1.794
2,B2,1.775
3,B3,1.736
4,B4,1.706
5,B5,1.661
6,B6,1.635
7,B7,1.566
8,B8,1.558
9,B9,2.077
10,B10,1.518
11,B11,1.511
12,B12,1.433
13,B13,1.395
14,B14,1.367
15,B15,1.180
16,B16,1.179
17,B17,1.025
18,B18,1.547
19,B19,0.784
20,B20,1.863

# Test: Probe fluorescence ratio response to stearic acid relative to ADIFAB2
# Type: binding
# Settings: response relative to ADIFAB2
# Procedure, shortened: as §1
row,Molecule,DR/DR SA
1,B1,0.329
2,B2,0.399
3,B3,0.310
4,B4,0.411
5,B5,0.519
6,B6,0.273
7,B7,0.285
8,B8,0.251
9,B9,1.311
10,B10,0.494
11,B11,0.383
12,B12,0.337
13,B13,0.503
14,B14,−0.043
15,B15,0.358
16,B16,0.233
17,B17,0.177
18,B18,1.201
19,B19,0.234
20,B20,1.512
